This is an account of results in patent publication US20090285813A1.

The assay deals with human CD3 (human) (UniProt P07766). Put plainly: cell-based or functional assay.
Sequence of human CD3 (human) (P07766 23-207): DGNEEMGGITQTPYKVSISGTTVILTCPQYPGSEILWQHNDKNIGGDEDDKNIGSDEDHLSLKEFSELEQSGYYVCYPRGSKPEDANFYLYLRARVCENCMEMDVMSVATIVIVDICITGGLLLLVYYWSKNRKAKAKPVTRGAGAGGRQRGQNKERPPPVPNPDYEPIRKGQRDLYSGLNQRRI

B1: anti-CD3 HuFR antibody 3 (heavy chain BD20611, light chain BD21132) (antibody, part only; not given: Heavy stretch before framework 4, V domains shown, part only)
VH, part: QVQLVESGAEVKKPGASVKVSCKASGYTFTRYTMHWVRQAPGKGLEWMGYINPSRGYTNYNQKFKDRLTISKDTSKNQVVLTMTNMDPVDTATYYCARYYDDHYCLDYVTVSSASTKGPS
VL: EIVLTQSPATLSLSPGERATLSCSASSSVSYMNWYQQKPGKAPKLLIYDTSKLASGVPSRFSGSGSGTEFTLTISSLQPDDFATYYCQQWSSNPFTFGQGTKVEIKFGQGTKVEIKR
With B1, the Apo-One Apoptosis Assay, 12.5 ng/ml is 649; the Apo-One Apoptosis Assay, 12.5 ng/ml, second block (ratio to Fc null) is 1.3; the Apo-One Apoptosis Assay, 25 ng/ml amounted to 854; the Apo-One Apoptosis Assay, 25 ng/ml, second block (ratio to Fc null) turned out to be 1.2. Further, the Apo-One Apoptosis Assay, 50 ng/ml stood at 1130 and the Apo-One Apoptosis Assay, 50 ng/ml, second block (ratio to Fc null) was 1.

B2: anti-CD3 HuFR antibody 8 (heavy chain BD20611, light chain BD21137) (antibody, part only; not given: few VH framework 4 residues, V domains shown, part only)
VH, part: QVQLVESGAEVKKPGASVKVSCKASGYTFTRYTMHWVRQAPGKGLEWMGYINPSRGYTNYNQKFKDRLTISKDTSKNQVVLTMTNMDPVDTATYYCARYYDDHYCLDYVTVSSASTKGPS
VL: DIQMTQSPSTLSASVGDRVTITCSASSSVSYMNWYQQKPGQPPKLLIYDTSKLASGVPSRFSGSGSGTDFTFTISSLQPEDIATYYCQQWSSNPFTFGQGTKVEIKFGQGTKVEIKR
In the case of B2, the Apo-One Apoptosis Assay, 12.5 ng/ml was 969; the Apo-One Apoptosis Assay, 12.5 ng/ml, second block (ratio to Fc null) came out at 2; the Apo-One Apoptosis Assay, 25 ng/ml worked out at 1630; the Apo-One Apoptosis Assay, 25 ng/ml, second block (ratio to Fc null) was 2.2. Besides, the Apo-One Apoptosis Assay, 50 ng/ml turned out to be 2560 and the Apo-One Apoptosis Assay, 50 ng/ml, second block (ratio to Fc null) was 2.1.

B3: anti-CD3 HuFR antibody 6 (heavy chain BD20611, light chain BD21135) (antibody, part only; not given: Heavy stretch before framework 4, V domains shown, part only)
VH, part: QVQLVESGAEVKKPGASVKVSCKASGYTFTRYTMHWVRQAPGKGLEWMGYINPSRGYTNYNQKFKDRLTISKDTSKNQVVLTMTNMDPVDTATYYCARYYDDHYCLDYVTVSSASTKGPS
VL: EIVMTQSPATLSVSPGERATLSCSASSSVSYMNWYQQKPGQAPRLLIYDTSKLASGVPDRFSGSGSGTDFTLTISSLQAEDVAVYYCQQWSSNPFTFGQGTKVEIKFGQGTKVEIKR
For B3, the Apo-One Apoptosis Assay, 12.5 ng/ml came to 1280; the Apo-One Apoptosis Assay, 12.5 ng/ml, second block (ratio to Fc null) stood at 2.6; the Apo-One Apoptosis Assay, 25 ng/ml was 2220; the Apo-One Apoptosis Assay, 25 ng/ml, second block (ratio to Fc null) came to 3.1. The Apo-One Apoptosis Assay, 50 ng/ml was 3500 and the Apo-One Apoptosis Assay, 50 ng/ml, second block (ratio to Fc null) came out at 2.9.

B4: anti-CD3 HuFR antibody 5 (heavy chain BD20611, light chain BD21134) (antibody, part only; not given: Heavy stretch before framework 4, V domains shown, part only)
VH, part: QVQLVESGAEVKKPGASVKVSCKASGYTFTRYTMHWVRQAPGKGLEWMGYINPSRGYTNYNQKFKDRLTISKDTSKNQVVLTMTNMDPVDTATYYCARYYDDHYCLDYVTVSSASTKGPS
VL: EIVMTQSPATLSVSPGERATLSCSASSSVSYMNWYQQKPGQPPKLLIYDTSKLASGVPSRFSGSGSGTEFTLTISSLQPDDFATYYCQQWSSNPFTFGQGTKVEIKFGQGTKVEIKR
As to B4, the Apo-One Apoptosis Assay, 12.5 ng/ml came out at 1160; the Apo-One Apoptosis Assay, 12.5 ng/ml, second block (ratio to Fc null) was 2.4; the Apo-One Apoptosis Assay, 25 ng/ml amounted to 1660; the Apo-One Apoptosis Assay, 25 ng/ml, second block (ratio to Fc null) came to 2.3. Moreover, the Apo-One Apoptosis Assay, 50 ng/ml was 2160 and the Apo-One Apoptosis Assay, 50 ng/ml, second block (ratio to Fc null) is 1.8.

B5: anti-CD3 HuFR antibody 4 (heavy chain BD20611, light chain BD21133) (antibody, part only; not given: Heavy stretch before framework 4, V domains shown, part only)
VH, part: QVQLVESGAEVKKPGASVKVSCKASGYTFTRYTMHWVRQAPGKGLEWMGYINPSRGYTNYNQKFKDRLTISKDTSKNQVVLTMTNMDPVDTATYYCARYYDDHYCLDYVTVSSASTKGPS
VL: DIVMTQSPLSLPVTPGEPASISCSASSSVSYMNWYQQKPGQPPKLLIYDTSKLASGVPSRFSGSGSGTEFTLTISSLQPDDFATYYCQQWSSNPFTFGQGTKVEIKFGQGTKVEIKR
Turning to B5, the Apo-One Apoptosis Assay, 12.5 ng/ml amounted to 1390; the Apo-One Apoptosis Assay, 12.5 ng/ml, second block (ratio to Fc null) was found to be 2.8; the Apo-One Apoptosis Assay, 25 ng/ml was found to be 2350; the Apo-One Apoptosis Assay, 25 ng/ml, second block (ratio to Fc null) was 3.2. The Apo-One Apoptosis Assay, 50 ng/ml was 3300 and the Apo-One Apoptosis Assay, 50 ng/ml, second block (ratio to Fc null) is 2.8.

B6: anti-CD3 HuFR antibody 1 (heavy chain BD20610, light chain BD21130) (antibody, part only; not given: Heavy stretch before framework 4, V domains shown, part only)
VH, part: QVQLVESGAEVKKPGASVKVSCKASGYTFTRYTMHWVRQAPGKGLEWMGYINPSRGYTNYNQKFKDRVTISVDTSKNQFSLKLSSVTAADTAVYYCARYYDDHYCLDYVTVSSASTKGPS
VL: DIQMTQSPSSLSASVGDRVTITCSASSSVSYMNWYQQKPGQPPKLLIYDTSKLASGVPDRFSGSGSGTDFTLKISRVEAEDVGVYYCQQWSSNPFTFGQGTKVEIKFGQGTKVEIKR
In the case of B6, the Apo-One Apoptosis Assay, 12.5 ng/ml was 797; the Apo-One Apoptosis Assay, 12.5 ng/ml, second block (ratio to Fc null) came out at 1.6; the Apo-One Apoptosis Assay, 25 ng/ml came out at 1220; the Apo-One Apoptosis Assay, 25 ng/ml, second block (ratio to Fc null) is 1.7. The Apo-One Apoptosis Assay, 50 ng/ml stood at 1750 and the Apo-One Apoptosis Assay, 50 ng/ml, second block (ratio to Fc null) turned out to be 1.5.

B7: anti-CD3 HuFR antibody 2 (heavy chain BD20613, light chain BD21131) (antibody, part only; not given: few VH framework 4 residues, V domains shown, part only)
VH, part: QVQLQESGPGLVKPSETLSLTCAVSGYTFTRYTMHWVRQAPGKGLEWVGYINPSRGYTNYNQKFKDRFTISRDDSKNTAYLQMNSLKTEDTAVYYCTRYYDDHYCLDYVTVSSASTKGPS
VL: DIQMTQSPSTLSASVGDRVTITCSASSSVSYMNWYQQKPGQAPRLLIYDTSKLASGVPDRFSGSGSGTDFTLKISRVEAEDVGVYYCQQWSSNPFTFGQGTKVEIKFGQGTKVEIKR
In the case of B7, the Apo-One Apoptosis Assay, 12.5 ng/ml is 854; the Apo-One Apoptosis Assay, 12.5 ng/ml, second block (ratio to Fc null) is 1.7; the Apo-One Apoptosis Assay, 25 ng/ml was 1440; the Apo-One Apoptosis Assay, 25 ng/ml, second block (ratio to Fc null) was 2. The Apo-One Apoptosis Assay, 50 ng/ml was determined as 2160 and the Apo-One Apoptosis Assay, 50 ng/ml, second block (ratio to Fc null) was 1.8.

B8: anti-CD3 HuFR antibody 9 (heavy chain BD20613, light chain BD21138) (antibody, part only; not given: few VH framework 4 residues, V domains shown, part only)
VH, part: QVQLQESGPGLVKPSETLSLTCAVSGYTFTRYTMHWVRQAPGKGLEWVGYINPSRGYTNYNQKFKDRFTISRDDSKNTAYLQMNSLKTEDTAVYYCTRYYDDHYCLDYVTVSSASTKGPS
VL: DIQMTQSPSTLSASVGDRVTITCSASSSVSYMNWYQQKPGKAPKLLIYDTSKLASGVPDRFSGSGSGTDFTLKISRVEAEDVGVYYCQQWSSNPFTFGQGTKVEIKFGQGTKVEIKR
Regarding B8, the Apo-One Apoptosis Assay, 12.5 ng/ml came to 885; the Apo-One Apoptosis Assay, 12.5 ng/ml, second block (ratio to Fc null) came out at 1.8; the Apo-One Apoptosis Assay, 25 ng/ml was found to be 1380; the Apo-One Apoptosis Assay, 25 ng/ml, second block (ratio to Fc null) amounted to 1.9. The Apo-One Apoptosis Assay, 50 ng/ml worked out at 2040 and the Apo-One Apoptosis Assay, 50 ng/ml, second block (ratio to Fc null) is 1.7.

B9: anti-CD3 HuFR antibody 7 (heavy chain BD20611, light chain BD21136) (antibody, part only; not given: Heavy stretch before framework 4, V domains shown, part only)
VH, part: QVQLVESGAEVKKPGASVKVSCKASGYTFTRYTMHWVRQAPGKGLEWMGYINPSRGYTNYNQKFKDRLTISKDTSKNQVVLTMTNMDPVDTATYYCARYYDDHYCLDYVTVSSASTKGPS
VL: DIQMTQSPSTLSASVGDRVTITCSASSSVSYMNWYQQKPGKAPKLLIYDTSKLASGIPDRFSGSGSGTDFTLTISRLEPEDFAVYYCQQWSSNPFTFGQGTKVEIKFGQGTKVEIKR
With B9, the Apo-One Apoptosis Assay, 12.5 ng/ml stood at 2270; the Apo-One Apoptosis Assay, 12.5 ng/ml, second block (ratio to Fc null) is 4.6; the Apo-One Apoptosis Assay, 25 ng/ml turned out to be 3480; the Apo-One Apoptosis Assay, 25 ng/ml, second block (ratio to Fc null) was 4.8. For the same molecule, the Apo-One Apoptosis Assay, 50 ng/ml came out at 4740 and the Apo-One Apoptosis Assay, 50 ng/ml, second block (ratio to Fc null) was determined as 4.
